From patent US12410253B2, “Compositions comprising anti-NRP2 antibodies” (aTyr Pharma, Inc., priority 2019, dated 2025)
“Also recorded” adds a separate entry of the source.

B1: aNRP2-14v9: humanized, affinity matured anti-NRP2 antibody, target domain a2; VH SEQ ID NO: 53, VL SEQ ID NO: 54 (antibody, V domains shown)
VH: QLQLVESGGGVVQPGRSLRLSCTVSGFSLTSYGVHWVRQAPGKGLEWVGLIWSGGSTDYSPAFISRFTISEDNSKSTVYLQMNSLRAEDTAVYFCARNSYSSGYYAMDYWGQGTTVTVSS
VL: DIQLTQSPSFLSASVGDRVTITCKASQNVGHAVAWYQQKPGKAPKLLIYSASNRYTGVPSRFSGSGSGTEFTLTISSLQPEDFATYYCQQYSRYPPYTFGGGTKVEIK
modifications: Variable heavy chain region; Light chain variable region
B2: aNRP2-28v2/4: mouse surrogate VEGF blocking antibody recognizing mouse NRP2, functional surrogate for aNRP2-10v10; CDRs SEQ ID NOs: 63-68 (antibody, V domains shown)
VH: QSVKESEGGLFKPTDTLTLTCTVSGFSLSTYSISWVRQAPGNGLEWIGIIGDAGGIIYATWAKSRSTITRSTALNTVTLKMTGLTAADTATYFCARDGTAFDIWGPGTLVTVSS
VL: AYDMTQTPASVEVVVGGTVTIKCQASQSIYSKLGWYQQKPGQPPKLLIYRASTLASGVSSRFKGSGSGTEYTLTISGVQCDDAATYYCQQDYSYINVDNIFGGGTEVVVK

Columns and labels:
MDA-MB-231 cells = conditions: mouse, in vivo
Experimental: The dosing regimen was initiated when the mean tumor volume of all study animals reached 50-100 mm^3.
Treatment Regimen. Twenty (20) NSG mice (Jackson Laboratory, female, 5-6 wks old) were used in this study. The animals were assigned to two study groups of 10 mice randomly. The MDA-MB-231 cell line was prepared for injection as described in the Materials and Methods.
1.25×10^6 cancer cells in PBS with 20% matrigel were injected orthotopically into the mammary fat pad. The day on which the tumor was implanted is designated as Day 0.

NRP2/FLT4(VEGFR3) = target: T1, NRP2/FLT4(VEGFR3) (Homo sapiens, UniProt O60462); assay: Split-luciferase receptor dimerization assay, NRP2/FLT4 with VEGF-C; assay type: cell-based; conditions: antibody 100 nM; ligand induced dimerization
T1 construct: The complete extracellular domain and transmembrane helices of NRP2a (version 2), NRP2b (version 5); expressed in transfected cells; host or cells: Expi293, transient co-transfection
T1 sequence (O60462 23-859 isoform O60462-3 limits assumed): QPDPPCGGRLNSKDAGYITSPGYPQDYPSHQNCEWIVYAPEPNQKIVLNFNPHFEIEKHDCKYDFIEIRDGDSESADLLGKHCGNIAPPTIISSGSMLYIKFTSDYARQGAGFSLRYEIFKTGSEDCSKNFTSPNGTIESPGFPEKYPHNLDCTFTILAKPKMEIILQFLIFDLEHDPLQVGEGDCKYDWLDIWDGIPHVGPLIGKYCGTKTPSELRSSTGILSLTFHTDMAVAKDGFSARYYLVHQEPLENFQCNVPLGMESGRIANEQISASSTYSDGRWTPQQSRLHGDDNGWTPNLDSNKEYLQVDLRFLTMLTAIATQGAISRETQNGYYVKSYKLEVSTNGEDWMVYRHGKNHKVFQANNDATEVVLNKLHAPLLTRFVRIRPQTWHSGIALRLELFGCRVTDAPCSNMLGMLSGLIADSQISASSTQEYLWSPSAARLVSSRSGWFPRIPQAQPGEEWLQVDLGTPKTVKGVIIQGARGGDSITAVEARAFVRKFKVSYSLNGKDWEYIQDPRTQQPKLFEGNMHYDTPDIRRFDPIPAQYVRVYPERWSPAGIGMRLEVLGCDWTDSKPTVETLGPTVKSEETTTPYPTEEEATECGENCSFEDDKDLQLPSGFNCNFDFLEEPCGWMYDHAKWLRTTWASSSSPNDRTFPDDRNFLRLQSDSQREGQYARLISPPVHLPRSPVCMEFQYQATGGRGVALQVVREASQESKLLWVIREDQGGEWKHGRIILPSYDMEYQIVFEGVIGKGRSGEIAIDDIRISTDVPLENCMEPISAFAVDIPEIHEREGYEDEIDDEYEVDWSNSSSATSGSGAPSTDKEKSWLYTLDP
Experimental: (§1) To further extend the assessment of the biological activity of the anti-NRP2 antibodies, their activity was assessed in a receptor dimerization assay. In brief, vectors encoding a split luciferase pBiT1.1 and pBiT2.1 were obtained from Promega corporation (Madison, Wisconsin). The complete extracellular domain and transmembrane helices of NRP2a (version 2), NRP2b (version 5) (See table N1), FLT4 (VEGFR3), KDR (VEGFR2), and plexin A1 (PLXNA1) were cloned into the vectors and screened for optimal orientation, receptor density, and ligand induced dimerization, following established methods. Expi293 cells (Fisher) were transfected at 1 million cells/mL ˜20 hours prior to the assay with NRP2 and a co-receptor at equal mass amounts. Cells were counted, and 100,000 live cells were plated in a well of a white luminometer plate in Live Cell Imaging Solution (Fisher). Nano-Glo assay substrate (Promega) was added, and the plate was read on a Glomax 96 luminometer at room temperature to establish baseline luminescence. Antibodies were added to the well at 100 nM and the plate was again read to establish a new baseline and monitor the effects of the antibodies on spontaneous receptor dimerization. Depending on the receptor pair, typically 200 nM SEMA3F-p95 (aTyr Pharma), 2 nM VEGF-C(R&D Systems, Minnesota), or 2 nM VEGF165 (R&D Systems, Minnesota) were then added and the plate was again read to measure dimerization of receptors. Normalized responses for each individual well were calculated to the time point prior to addition of ligand, then normalized to no-antibody/no-ligand (baseline signal). Replicates were then processed to give average response and standard deviation. Results are summarized in Table E3 below, and shown graphically in FIGS. 3-10.

NRP2/PLXNA1 = assay: Split-luciferase receptor dimerization assay, NRP2/PLXNA1 with SEMA3F; assay type: cell-based, human; conditions: antibody 100 nM; ligand induced dimerization
Experimental: as §1

Human NRP2 (aa23-855) = target: T2, Human NRP2 (aa23-855) (Homo sapiens, UniProt O60462); assay: SPR binding affinity of anti-NRP2 antibodies to human NRP2 antigen; conditions: KD = kd/ka, Langmuir (1:1) model
T2 construct: Human NRP2 (aa23-855)
T2 sequence (O60462 23-855 isoform O60462-3): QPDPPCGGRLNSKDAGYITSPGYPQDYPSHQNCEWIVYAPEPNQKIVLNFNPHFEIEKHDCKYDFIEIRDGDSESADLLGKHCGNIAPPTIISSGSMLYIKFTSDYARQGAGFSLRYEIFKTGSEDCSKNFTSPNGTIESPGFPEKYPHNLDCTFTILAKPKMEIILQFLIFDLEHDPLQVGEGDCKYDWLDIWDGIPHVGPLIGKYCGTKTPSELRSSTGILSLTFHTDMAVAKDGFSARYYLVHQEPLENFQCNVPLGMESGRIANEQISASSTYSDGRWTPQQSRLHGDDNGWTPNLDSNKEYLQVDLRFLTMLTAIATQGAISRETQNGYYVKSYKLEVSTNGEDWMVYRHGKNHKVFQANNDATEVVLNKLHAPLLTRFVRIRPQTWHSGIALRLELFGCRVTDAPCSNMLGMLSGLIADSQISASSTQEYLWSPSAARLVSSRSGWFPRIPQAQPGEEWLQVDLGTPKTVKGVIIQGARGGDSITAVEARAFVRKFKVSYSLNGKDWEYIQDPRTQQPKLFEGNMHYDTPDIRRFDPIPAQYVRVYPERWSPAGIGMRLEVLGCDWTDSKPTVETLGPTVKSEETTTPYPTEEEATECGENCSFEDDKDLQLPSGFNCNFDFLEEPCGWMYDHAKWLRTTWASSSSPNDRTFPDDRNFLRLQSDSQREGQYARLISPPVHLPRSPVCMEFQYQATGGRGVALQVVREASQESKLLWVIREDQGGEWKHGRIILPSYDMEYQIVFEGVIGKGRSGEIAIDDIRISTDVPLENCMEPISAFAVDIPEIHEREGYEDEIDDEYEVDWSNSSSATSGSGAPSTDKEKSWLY
Experimental: Anti-NRP2 antibody binding and affinity measurements. […] SPR experiments were conducted on a Bio-Rad ProteOn XPR36 Protein Interaction Array instrument. Biotinylated anti-human antibody (ThermoFisher Cat #7103302100) was immobilized on ProteOn NLC sensor chips. Anti-NRP2 antibodies were subsequently flowed over and captured by the anti-human antibody. Human NRP2 antigen protein was flowed over the captured antibody at varying concentrations (150, 50, 16.67, 5.56, 1.85 nM). The sensor chip surface was regenerated between each analyte run to remove anti-NRP2 antibodies and NRP2 protein. Data was double referenced against a surface with no anti-NRP2 antibody captured (immobilized anti-human antibody only) and a buffer only blank. Affinity constants were derived by globally fitting sensograms to a Langmuir (1:1) interaction model in the ProteOn manager software. For each anti-NRP2 antibody, data from the multiple NRP2 concentrations was fit as a single data set with dissociation rate constant (kd), association rate constant (ka) and Rmax values as global parameters. The reported binding affinity is the equilibrium dissociation constant (KD) calculated from kd/ka. • Running buffer: 50 mM HEPES, 300 mM NaCl, 5 mM CaCl2), 0.005% Tween-20, pH 7.4 • Immobilized antibody: CaptureSelect Human Fab-kappa Kinetics Biotin Conjugate, ThermoFisher Cat #7103302100 • Antigen: Human NRP2 (aa23-855) with C-terminal Avi-, Myc- and His-tags • Regeneration buffer: 10 mM glycine pH 2.0

[1] = test system: neo-lymphangiogenesis of the cornea; assay: Corneal alkali-burn injury model of neovascularization (LYVE-1 staining); assay type: in vivo, mouse; conditions: IP on Day 0, 3, 7 and 10; Day 14; compared to IgG control; p=0.07
Experimental: Study Design & Treatment Regimen. The study consisted of 40 female C57BL/6 mice separated into four groups. Prior to study, animals were randomized into four groups, 10 mice per group. On Day 0, neovascularization (NV) of the cornea was induced from alkali-burn injury in the eyes of animals under anesthesia. Animals were treated intraperitoneally with control IgG (Group 1), aNRP2-28 (Group 2) and Bevacizumab (Group 3) on post-injury Day 0, 3, 7 and 10. During the in-life phase, animals were monitored with daily clinical observations and weekly body weights. Additionally, ocular assessments of injured eyes were scored and photos taken on post-injury Day 7 and Day 14. All animals were euthanized on Day 14. Injured eyes from all animals were removed and dissected. Whole-mounted corneas were fixed, stained with LYVE-1, and analyzed immunohistochemically to examine the efficacy of Test Articles.

4T1 tumors = assay: 4T1 model of spontaneous metastasis in Balb/c mice; assay type: in vivo
Experimental: The test antibody dosing regimen was initiated one day before cell injection and animal weights and tumor measurements were recorded three times a week until study termination.
Mouse 4T1 cell line was purchased from ATCC. […] 50,000 cancer cells in PBS were implanted subcutaneously into the right flank of each mouse.
Treatment Regimen. […] The animals were assigned to 3 study groups of 10 mice randomly, and housed as described in the Materials and Methods. The antibody dosing regimen is shown in Table E5 below; in brief animals received intraperitoneal injections of 10 mg/kg of the control IgG antibody, and aNRP2-28 (as described in the Materials and Methods), administered according to the protocol below (Table E5); starting one day before cancer cell implantation until termination on day 23).

B16-F10 tumors = assay: B16-F10 mouse melanoma in C57BL/6 mice; assay type: in vivo
Experimental: Animals and Animal husbandry. All mice were ear tagged for identification purpose. Upon arrival, animals were examined to ensure that they were healthy. The animals were housed in autoclaved solid floor polycarbonate cages. Housing and sanitation were performed according to industry standards. All animal handling was performed in a laminar flow hood located in a clean room. In all experiments, euthanasia criteria were set for an upper limit on subcutaneous tumor volume (usually >2,000 mm^3) and body weight loss (usually >20% body weight loss for an individual during the study). Animal work was performed at either Comparative Biosciences, Inc., 786 Lucerne Dr., Sunnyvale, CA 94085 or at aTyr Pharma, 3545 John Hopkins Court, Suite 250, San Diego, CA 92121. The test antibody dosing regimen was initiated once the mean tumor volume reached 50-100 mm^3. Tumor measurements were recorded two times a week until study termination, as described below.
Tumor monitoring. Once palpable, sub-cutaneous tumors were measured three times a week with a digital caliper. Tumor volumes were calculated using formula: Tumor Volume=length×width×width×1/2
Statistical analysis. Data are expressed as mean±SEM o. In experiments in which animals were euthanized due to tumor burden or body weight loss, the terminal tumor volume was carried forward for statistical analysis. […] Significance of difference over time was tested with a 2-way repeated measures ANOVA followed by Dunnett's post-hoc test. Group comparisons were conducted using 1-way ANOVA (parametric or Kruskal Wallis, as noted in the figure legends). A p value <0.05 was considered significant.
Cell culture and implantation. Mouse B16-F10 cell line was purchased from ATCC.
Treatment Regimen. Thirty (30) C57BL/6 mice (Charles River, female, 6-8 wks old) were used in this study. The animals were assigned to 3 study groups of 10 mice randomly, and housed as described in the Materials and Methods. The antibody dosing regimen is shown in Table E4 below; in brief animals received intraperitoneal injections of the control IgG antibody, positive control antibody (Bevacizumab), and anti-NRP2 antibody (as described in the Materials and Methods), administered according to the protocol below (Table E4).

Row | Molecule | body weight (MDA-MB-231 cells) | effect on NRP2-VEGFR3 (FLT4) heterodimerization (in words) (NRP2/FLT4(VEGFR3)) | effect on NRP2-plexin heterodimerization (in words) (NRP2/PLXNA1) | Kd (Human NRP2 (aa23-855)) | neo-lymphangiogenesis, % Lyve-1+ area of cornea [1] | toxicity from animal body weight measurements and observations (4T1 tumors; 10 mg/kg IP) | metastatic nodules in the lung at termination (4T1 tumors; 10 mg/kg IP days -1 to 23, compared to IgG control, p≤0.05) | terminal tumor weights (B16-F10 tumors; 25 mg/kg IP BIW) | toxicity from animal body weight measurements and observations (B16-F10 tumors; 25 mg/kg IP BIW) | tumor growth (tumor volume) (B16-F10 tumors; 25 mg/kg IP BIW, compared to IgG control group, p<0.05 on Day 14, 16 and 19) | anti-tumor activity relative to Bevacizumab (positive control) (B16-F10 tumors; aNRP2-28 25 mg/kg vs Bevacizumab 5 mg/kg, IP BIW)
1 | N.N.[Cl][Pt][Cl] [cisplatin, Cisplatin] | significant loss in body weight | – | – | – | – | – | – | – | – | – | –
2 | B1 | – | no significant impact | extremely potent inhibition | 0.15 nM | – | – | – | – | – | – | –
3 | B2 | – | – | – | 0.0599 nM | inhibits neo-lymphangiogenesis; also recorded: can inhibit neolymphangiogenesis | no evidence of toxicity | reduction in metastatic nodules in the lung | lowest terminal tumor weights | no evidence of toxicity | tumor growth inhibition | more potent anti-tumor activity
